Source: paper PMC7326016, “Structural Studies of Glutamate Dehydrogenase (Isoform 1) From Arabidopsis thaliana, an Important Enzyme at the Branch-Point Between Carbon and Nitrogen Metabolism” (Frontiers in Plant Science, 2020)

Molecular target: the molecule itself
Test: crystal structure; two crystal structures of AtGDH1 (apo, 2.59 Å; complex with NAD+, 2.03 Å; 2OG in one subunit of the latter); one homohexamer in the asymmetric unit, space group P212121; inter-subunit contacts analysed with PISA

B1: Glutamate dehydrogenase 1 from Arabidopsis thaliana (AtGDH1), homohexamer of α subunits (enzyme, A. thaliana, UniProt Q43314 1-411, looked up)
chain: MNALAATNRNFKLAARLLGLDSKLEKSLLIPFREIKVECTIPKDDGTLASFVGFRVQHDNARGPMKGGIRYHPEVDPDEVNALAQLMTWKTAVAKIPYGGAKGGIGCDPSKLSISELERLTRVFTQKIHDLIGIHTDVPAPDMGTGPQTMAWILDEYSKFHGYSPAVVTGKPIDLGGSLGRDAATGRGVMFGTEALLNEHGKTISGQRFVIQGFGNVGSWAAKLISEKGGKIVAVSDITGAIKNKDGIDIPALLKHTKEHRGVKGFDGADPIDPNSILVEDCDILVPAALGGVINRENANEIKAKFIIEAANHPTDPDADEILSKKGVVILPDIYANSGGVTVSYFEWVQNIQGFMWEEEKVNDELKTYMTRSFKDLKEMCKTHSCDLRMGAFTLGVNRVAQATILRGWGA
notes: Glutamate dehydrogenase 1 (AtGDH1, α subunit), Arabidopsis thaliana ecotype Col-0, locus At5g18170.1, UniProt Q43314; Cloned into pMCSG68; the His tag was cut off with TEV protease; also called glutamate dehydrogenase (isoform 1); source: E. coli BL21-Gold (DE3), purified (HisTrap, TEV cleavage, second HisTrap, Superdex 200 SEC)
stoichiometry N: 6
